Measured values as given in patent US20220135694A1, “NOVEL CD40-BINDING ANTIBODIES” (LAVA THERAPEUTICS B.V., priority 2019, published 2022).

Legend:
[1] = tested on: primary CLL cells; assay: Venetoclax sensitivity and Bcl-xL expression of rmCD40L-stimulated primary CLL cells; assay type: cell-based, human; settings: V19S76K-5C8 1000 nM before rmCD40L 48 h
[2] = biological target: T1, CD40 (Homo sapiens, UniProt P25942); assay: CD40 agonistic activity in primary CLL cells, 48 h, flow cytometry; assay type: cell-based; settings: FIG. 7A-C
T1 construct: Primary chronic lymphocytic leukemia (CLL) cells express CD40 on the cell surface; endogenous in cells; host or cells: primary CLL PBMCs from untreated CLL patients
Procedure: PBMCs (≥90% CD5^+CD19^+) from untreated CLL patients were obtained and cryopreserved as described in Example 3. Thawed cells were kept in complete IMDM.
To assess whether binding of the VHH to CD40 has agonistic effects, primary CLL PBMCs were cultured for 48 hours in the presence of VHH, medium control or recombinant multimeric CD40 ligand (rmCD40L; 100 ng/mL, Bioconnect).
After 48 hours, cells were harvested, washed and incubated with AF700-conjugated anti-CD19 (557921), FITC-conjugated anti-CD80 (6109965), APC-conjugated anti-CD86 (555660, all BD Biosciences), PE-conjugated anti-CD5 (12-0059-42, Thermo Fisher Scientific) and PECy7-conjugated anti-CD95 (305621, Biolegend, San Diego, Calif., USA) antibodies for 20 minutes at 4° C. Alternatively, after 48 hours, cells were harvested and viability was measured using Mitotracker Orange (25-minute incubation at 37° C.) and To-pro-3 (10-minute incubation at room temperature; both Thermo Fisher Scientific). Samples were measured on a FACSCanto cytometer (BD Biosciences) and analyzed with Flowjo MacV10.
To assess whether binding of the VHH has agonistic effects, primary CLL PBMCs were cultured with the indicated concentrations of V19S76K-5C8, medium control or rmCD40L for 48 hours and analyzed by flow cytometry as described in Example 4.

T1 sequence (P25942 21-277): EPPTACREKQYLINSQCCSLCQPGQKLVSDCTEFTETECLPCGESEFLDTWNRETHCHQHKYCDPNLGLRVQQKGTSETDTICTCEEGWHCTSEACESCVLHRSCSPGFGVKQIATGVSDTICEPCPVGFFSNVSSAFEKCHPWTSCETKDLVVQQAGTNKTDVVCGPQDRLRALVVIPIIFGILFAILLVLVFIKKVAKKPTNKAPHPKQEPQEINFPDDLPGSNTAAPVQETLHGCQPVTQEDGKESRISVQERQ

B1: V19S76K-5C8: tag-less bispecific anti-CD40-anti-Vγ9Vδ2-TCR VHH, SEQ ID NO:23 (protein)
VHH: QVQLQESGGGLVQAGGSLRLSCAASGRTFGRSAMGWFRQAPGKEREFVAAIGTRGGSTKYADSVKGRFTISTDNAKNTVYLQMDSLKPEDTAVYRCAVRGPGYPSAAIFQDEYHYWGQGTQVTVSSGGGGSEVQLVESGGGLVQAGGSLRLSCAASGRPFSNYAMGWFRQAPGKEREFVAAISWSGGSTSYADSVKGRFTISRDNAKNTVYLQMNSPKPEDTAIYYCAAQFSGADYGFGRLGIRGYEYDYWGQGTQVTVSS
modifications: antibody sequence
[1]; then venetoclax 24 h, FIG. 9A
  sensitivity to venetoclax of rmCD40L-stimulated primary CLL cells: as sensitive to venetoclax as unstimulated CLL cells
[1]; FIG. 9B
  Bcl-xL expression: returned to unstimulated levels
[2]
  CD40 stimulation (expression of CD80, CD86 and CD95): none of the V19S76K-5C8 concentrations tested increased the expression of CD80, CD86 or CD95
